In PMC4115806 (2014):

Molecular target: T1, Activated protein C (Homo sapiens, UniProt P04070)
T1 chain 1: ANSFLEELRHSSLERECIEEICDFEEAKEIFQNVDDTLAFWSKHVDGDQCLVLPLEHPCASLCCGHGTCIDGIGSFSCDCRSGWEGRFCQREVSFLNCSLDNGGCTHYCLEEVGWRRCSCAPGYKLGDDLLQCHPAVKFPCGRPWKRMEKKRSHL
T1 chain 2: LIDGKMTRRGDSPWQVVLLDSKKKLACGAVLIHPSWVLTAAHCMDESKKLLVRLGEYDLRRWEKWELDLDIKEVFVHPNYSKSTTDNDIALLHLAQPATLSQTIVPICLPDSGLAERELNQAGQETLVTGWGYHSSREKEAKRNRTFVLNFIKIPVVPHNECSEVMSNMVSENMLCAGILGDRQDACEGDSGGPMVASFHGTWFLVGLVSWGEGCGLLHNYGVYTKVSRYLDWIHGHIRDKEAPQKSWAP
Assay: flow cytometry

B1: Endothelial protein C receptor (protein)
chain: SQDASDGLQRLHMLQISYFRDPYHVWYQGNASLGGHLTHVLEGPDTNTTIIQLQPLQEPESWARTQSGLQSYLLQFHGLVRLVHQERTLAFPLTIRCFLGCELPPEGSRAHVFFEVAVNGSSFVSFRPERALWQADTQVTSGVVTFTLQQLNAYNRTRYELREFLEDTCVQYVQKHISAENTKGSQTSRSYTS
modifications: fluorescently labelled APC
B1 showed a Kd of 77 nM.
